# Values of other authors, collected in patent US20260069559A1, “COMBINATIONS OF RXFP1 MODULATORS AND SGLT2 INHIBITORS” (ASTRAZENECA AB, priority 2022, published 2026).
# Conditions: after receiving serelaxin intravenously; fraction of patients
substance,measurement,value
serelaxin,patients who experienced a significant blood pressure drop (>40 mm Hg),approximately one third
